# Data: US10538591B2, “Anti-fibulin-3 antibodies and uses thereof” (THE BRIGHAM AND WOMEN'S HOSPITAL, INC., priority 2014, dated 2020)
# Where “and” joins values, the source holds several entries; their conditions need not be identical. Identical values can stand only once. Entries after “also recorded” stand apart in the source; their conditions may differ.
# B1: mAb428.2: mouse monoclonal IgG1 kappa antibody against human fibulin-3 peptide SEQ ID NO:2; VH SEQ ID NO: 3, VL SEQ ID NO: 4 (antibody, V domains shown)
# VH: QIQLVQSGPELKKPGETVKISCKASGYSFTTYGMSWVKQAPGKGLKWMGWINTYSGVPTYADDFKGRFAFFLETSASTAYLQINNLKNEDTATYFCARWVDYWGQGTTLTVSS
# VL: DIKMTQSPSSMYASLGERVTITCKASQDIKSYLSWHQQKPWKSPKTLIYYATSLADGVPSRFSGSGSGQDYSLTISSLESDDTATYYCLQHGKSPYTFGGGTKLEIK
# Experiments:
# [1] = test system: fibulin-3-induced Notch signaling; assay: Notch-reporter luminescent assay in CNS1 glioma cells transfected with fibulin-3 cDNA; type: cell-based; conditions: for effect on fibulin-3-induced Notch activity: monoclonal antibody 100 μg/ml, 0, 2, 6 and 24 h
# Description: Glioma cells (CNS I line) carrying a Notch-reporter luminescent system were transfected with fibulin-3 cDNA (or a control plasmid) and incubated in serum-free conditions for 24 h.
# Antibodies against fibulin-3 block the molecular mechanism triggered by this protein. To confirm whether the cytotoxic effects were related to specific inhibition of the molecular mechanisms of fibulin-3, the antibody anti-Fib3/911 was added to glioma cells (CNS1 cell line) that had been transfected to overexpress fibulin-3. Overexpression of fibulin-3 in the glioma cells increased Notch signaling activity as expected.
# Glioma cells (CNS1 line) carrying a Notch-driven luminescent reporter system were transfected with fibulin-3 cDNA (Fib3 OE) or a control plasmid (Control) and incubated in serum-free conditions for 24 h. The following day the antibodies anti-Fib3/911 (50 μg/ml) or mAb428.3C11 (100 μg/ml) were added to the cultures and Notch activity was measured after 0, 2, 6, and 24 h.
# Glioma cells (CNS1 line) carrying a Notch-driven luminescent reporter system were transfected with fibulin-3 cDNA (Fib3 OE) or a control plasmid (Control) and incubated in serum-free conditions for 24 h. Results on the left panel show the effect of adding mAb428.2 (100 μg/ml), followed by measurement of Notch activity after 0, 2, 6, and 24 h. Results on the right panel show the effect of adding variable concentrations of mAb428.2 (0, 5, 10, 25, 50, and 100 μg/ml), followed by measurement of Notch activity after 6 h.
# [2] = Acute toxicity, single IV injection dose-escalation; type: in vivo, athymic mice; parameters: Endpoint weight / Endpoint weight Average: unit not given here; Pre-inject weight / Pre-inject weight Average: unit: g; conditions: for Endpoint weight Average / Pre-inject weight Average: group average; for Endpoint weight / Pre-inject weight: individual mouse
# Description: Table 2 summarizes the results of acute toxicity assays for mAb428.2 injected intravenously (IV) into mice. A dose-escalation study was performed with athymic mice that received a single IV injection of mAb428.2 (purified in low-endotoxin conditions). Doses ranged from 0.1 to 30 mg/kg and mice were observed (and weighed) for periods ranging from 15 minutes to 14 days after injection. Mice were perfused with 4% paraformaldehyde and several organs were recovered, processed for histochemistry and analyzed by a specialist in rodent histopathology. Note that recovered organs and tissues for FFPE+H&E processing were: cerebrum, cerebellum, eyes, liver, kidney, skin, forepaws (to assess connective tissue). This study was performed independently at the Beth Israel Deaconess Medical Center Preclinical Murine Pharmacogenomics Core and tissues were evaluated at the Dana-Farber/Harvard Cancer Center Rodent Histopathology Core.
# normal adult human brain = assay: Immunohistochemistry of normal adult human brain sections; conditions: anti-Fib3/911 10 μg/ml, mAb428.3C11 40 μg/ml, mAb3-5 5 μg/ml
# Description: Frozen sections of human primary glioblastoma and normal adult human brain were fixed in ethanol/acetate buffer and processed for immunohistochemistry with the following anti-fibulin-3 antibodies: rabbit polyclonal anti-Fib3/911 (10 μg/ml), mouse monoclonal anti-fibulin-3 mAb428.3C11 (40 μg/ml), and a commercial mouse monoclonal antibody against human fibulin-3 (mAb3-5, 5 μg/ml, Santa Cruz Biotechnology). […] Both in-house generated antibodies show stronger staining in the tumor parenchyma compared to the commercial antibody. In all cases, staining is particularly intense around tumor blood vessels. […] Sections were counterstained to identify endothelial markers and cell nuclei by staining with anti-CD31 and DAPI respectively. (Data not shown).
# [3] = mouse, in vivo
# [4] = 0.1 mg/kg IV, 15 min after injection
# [5] = 0.1 mg/kg IV, 24 h after injection
# [6] = 0.1 mg/kg IV, 4 days after injection
# [7] = 0.1 mg/kg IV, 14 days after injection
# [8] = 1 mg/kg IV, 15 min after injection
# [9] = 1 mg/kg IV, 24 h after injection
# [10] = 1 mg/kg IV, 4 days after injection
# [11] = 1 mg/kg IV, 14 days after injection
# [12] = 10 mg/kg IV, 15 min after injection
# [13] = 10 mg/kg IV, 24 h after injection
# [14] = 10 mg/kg IV, 4 days after injection
# [15] = 10 mg/kg IV, 14 days after injection
# [16] = 30 mg/kg IV, 24 h after injection
# [17] = 30 mg/kg IV, 4 days after injection
# [18] = 30 mg/kg IV, 14 days after injection
# [19] = single IV injection 0.1 to 30 mg/kg, 15 minutes to 14 days
molecule,measurement,setting,value
B1,dependence of Notch inhibition,"[1]; 0, 5, 10, 25, 50 and 100 μg/ml, 6 h, 100 μg/ml over 0-24 h",time- and concentration-dependent
same,effect on fibulin-3-induced Notch activity,[1],blocked fibulin-3-dependent Notch activation; also recorded: strong inhibitory effect
same,effect on fibulin-3-induced Notch activity,[1]; listed as mAb428.3C11,blocked
same,fibulin-3 effect on Notch activation,"[1]; t=4 h, anti-Fib3/911 50 μg/ml, mAb428.3C11 100 μg/ml",completely abolished fibulin-3 effects on Notch activation
same,levels of Notch activity,"[1]; t=24 h, anti-Fib3/911 50 μg/ml, mAb428.3C11 100 μg/ml",indistinguishable from controls
same,Endpoint weight Average,[2]; [4],24.27
same,Endpoint weight,[2]; [4],24.80 and 25.60 and 22.40
same,Endpoint weight Average,[2]; [5],25.27
same,Endpoint weight,[2]; [5],25.40 and 26.50 and 23.90
same,Endpoint weight Average,[2]; [6],24.53
same,Endpoint weight,[2]; [6],25.20 and 24.00 and 24.40
same,Endpoint weight Average,[2]; [7],23.93
same,Endpoint weight,[2]; [7],25.20 and 24.90 and 21.70
same,Pre-inject weight Average,"[2]; 0.1 mg/kg IV, endpoint 15 min",23.95
same,Pre-inject weight,"[2]; 0.1 mg/kg IV, endpoint 15 min, measured the day before injection",21.60 and 26.30 and 19.7 (*)
same,Pre-inject weight Average,"[2]; 0.1 mg/kg IV, endpoint 24 h",24.93
same,Pre-inject weight,"[2]; 0.1 mg/kg IV, endpoint 24 h",25.10 and 26.30 and 23.40
same,Pre-inject weight Average,"[2]; 0.1 mg/kg IV, endpoint 4 days",24.93
same,Pre-inject weight,"[2]; 0.1 mg/kg IV, endpoint 4 days",25.10 and 24.80 and 24.90
same,Pre-inject weight Average,"[2]; 0.1 mg/kg IV, endpoint 14 days",22.40
same,Pre-inject weight,"[2]; 0.1 mg/kg IV, endpoint 14 days",24.10 and 24.70 and 18.40
same,Endpoint weight Average,[2]; [8],24.40
same,Endpoint weight,[2]; [8],25.20 and 24.00 (2×)
same,Endpoint weight Average,[2]; [9],26.30
same,Endpoint weight,[2]; [9],25.80 and 26.30 and 26.80
same,Endpoint weight Average,[2]; [10],23.93
same,Endpoint weight,[2]; [10],25.00 and 22.80 and 24.00
same,Endpoint weight Average,[2]; [11],24.37
same,Endpoint weight,[2]; [11],24.60 and 24.00 and 24.50
same,Pre-inject weight Average,"[2]; 1 mg/kg IV, endpoint 15 min",24.77
same,Pre-inject weight,"[2]; 1 mg/kg IV, endpoint 15 min, measured the day before injection",25.30 and 24.60 and 24.40
same,Pre-inject weight Average,"[2]; 1 mg/kg IV, endpoint 24 h",26.13
same,Pre-inject weight,"[2]; 1 mg/kg IV, endpoint 24 h",25.80 and 25.90 and 26.70
same,Pre-inject weight Average,"[2]; 1 mg/kg IV, endpoint 4 days",24.23
same,Pre-inject weight,"[2]; 1 mg/kg IV, endpoint 4 days",25.30 and 22.80 and 24.60
same,Pre-inject weight Average,"[2]; 1 mg/kg IV, endpoint 14 days",24.30
same,Pre-inject weight,"[2]; 1 mg/kg IV, endpoint 14 days",24.60 and 23.80 and 24.50
same,Endpoint weight Average,[2]; [12],23.60
same,Endpoint weight,[2]; [12],23.50 and 22.90 and 24.40
same,Endpoint weight Average,[2]; [13],26.47
same,Endpoint weight,[2]; [13],26.30 and 25.60 and 27.50
same,Endpoint weight Average,[2]; [14],24.00
same,Endpoint weight,[2]; [14],24.70 and 23.60 and 23.70
same,Endpoint weight Average,[2]; [15],25.30
same,Endpoint weight,[2]; [15],25.10 and 24.80 and 26.00
same,Pre-inject weight Average,"[2]; 10 mg/kg IV, endpoint 15 min",23.60
same,Pre-inject weight,"[2]; 10 mg/kg IV, endpoint 15 min, measured the day before injection",23.60 and 23.20 and 24.00
same,Pre-inject weight Average,"[2]; 10 mg/kg IV, endpoint 24 h",26.00
same,Pre-inject weight,"[2]; 10 mg/kg IV, endpoint 24 h",26.20 and 25.00 and 26.80
same,Pre-inject weight Average,"[2]; 10 mg/kg IV, endpoint 4 days",24.03
same,Pre-inject weight,"[2]; 10 mg/kg IV, endpoint 4 days",24.70 and 24.00 and 23.40
same,Pre-inject weight Average,"[2]; 10 mg/kg IV, endpoint 14 days",24.90
same,Pre-inject weight,"[2]; 10 mg/kg IV, endpoint 14 days",24.60 and 24.40 and 25.70
same,Endpoint weight Average,[2]; [16],26.40
same,Endpoint weight,[2]; [16],27.40 and 26.30 and 25.50
same,Endpoint weight Average,[2]; [17],24.70
same,Endpoint weight,[2]; [17],25.20 and 26.30 and 22.60
same,Endpoint weight Average,[2]; [18],23.70
same,Endpoint weight,[2]; [18],25.50 and 23.70 and 21.90
same,Pre-inject weight Average,"[2]; 30 mg/kg IV, endpoint 24 h",26.20
same,Pre-inject weight,"[2]; 30 mg/kg IV, endpoint 24 h",27.40 and 26.10 and 25.10
same,Pre-inject weight Average,"[2]; 30 mg/kg IV, endpoint 4 days",23.73
same,Pre-inject weight,"[2]; 30 mg/kg IV, endpoint 4 days",24.00 and 25.30 and 21.90
same,Pre-inject weight Average,"[2]; 30 mg/kg IV, endpoint 14 days",22.90
same,Pre-inject weight,"[2]; 30 mg/kg IV, endpoint 14 days",24.20 and 23.20 and 21.30
same,maximum tolerated dose before causing toxicity (MTD),[2]; single IV injection,> 30 mg/kg
same,histopathology in tissues stained by H&E,[2]; single IV injection 0.1 to 30 mg/kg,no evidence of histopathology
same,adverse effects,[2]; [19],no adverse effects after injection
same,weight loss,[2]; [19],no weight loss
same,staining in normal brain,normal adult human brain,without cross-reactivity against normal brain
same,staining in normal brain,normal adult human brain; listed as mAb428.3C11,complete absence of staining in normal tissue
same,accumulation in skin or connective tissues,[3],did not accumulate in these tissues
same,amount detected through the skull,[3],very small but higher than the amount of a control IgG1 antibody
same,detection in intracranial tumors,[3],not detected in significant amounts
same,detection in subcutaneous tumors,[3]; 2.5 mg/kg,still detectable with high intensity of fluorescence
same,time of accumulation in the liver,[3]; 2.5 mg/kg,>= 6
same,time of accumulation of fluorescence in the bladder,[3]; 2.5 mg/kg,2 h
same,time of clearance from bladder and liver,[3]; 2.5 mg/kg,>= 24 h
